# Source: patent US9266940 (Novo Nordisk, dated 2016)
# Numbered stars: 1 amine (or outer) side, 2 acyl side, 3 side chain; on linkers, the order of the positions; unused ones are H or OH. Side chains are listed from the residue outwards. Ends that are not written are not given here. * marks the point of attachment. Decanoyl(10-(4-HOOC-PhO)) = O=C(O)c1ccc(OCCCCCCCCCC(=O)*)cc1; d(γGlu) = O=C(O)[C@@H](CCC(=O)[*:2])N[*:1]; γGlu = O=C(O)[C@H](CCC(=O)[*:2])N[*:1]; C14 diacid = O=C(O)CCCCCCCCCCCCC(=O)*; AEEA = NCCOCCOCC(=O)O
# Tests used:
# human GLP-1 receptor [1] = biological target: T1, human GLP-1 receptor (human, UniProt P43220 24-463); experiment: SPA displacement assay; IC50 at 2.0% HSA over IC50 at 0.001% HSA
# T1 construct: whole, on cells; Used as purified plasma membranes of the stably transfected BHK cell line, not as intact cells; also called hGLP-1
# Procedure: (§1) A shift in the binding affinity, $IC50$, is an indication that the peptide in question binds to albumin, and thereby a prediction of a potential protracted pharmacokinetic profile of the peptide in question in animal models.
# (§2) 50 ul (micro liter) HSA ("high albumin" experiment containing 2% HSA), or buffer ("low albumin" experiment containing 0.001% HSA), was added to Optiplate, and 25 ul of test compounds were added. 5-10 ug membrane protein/sample was added (50 ul) corresponding to 0.1-0.2 mg protein/ml (to be preferably optimised for each membrane preparation). SPA-particles (Wheatgerm agglutinin SPA beads, Perkin Elmer, #RPNQ0001) were added in an amount of 0.5 mg/well (50 ul). […] The plates were sealed with PlateSealer and incubated for 120 minutes at 30° C. while shaking. The plates were centrifuged (1500 rpm, 10 min) and counted in Topcounter.
# human GLP-1 receptor [2] = biological target: T1, human GLP-1 receptor; experiment: SPA, displacement of 125I-GLP-1(7-36)NH2 from hGLP-1R BHK membranes, high HSA (2.0%)
# Procedure: as §1, §2
# human GLP-1 receptor [3] = biological target: T1, human GLP-1 receptor; experiment: SPA, displacement of 125I-GLP-1(7-36)NH2 from hGLP-1R BHK membranes, low HSA (0.001%)
# Procedure: as §1, §2
# human GLP-1 receptor [4] = biological target: T1, human GLP-1 receptor; experiment: cell-based or functional assay
Binder,Ratio [(IC50/nM) high HSA]/[(IC50/nM) low HSA] (human GLP-1 receptor [1]),IC50 (human GLP-1 receptor [2]),IC50 (human GLP-1 receptor [3]),"EC50/pM (in vitro potency, cAMP formation, AlphaScreen) (human GLP-1 receptor [4])"
HAEGTFTSDVSSYLEEQAVRK([AEEA-AEEA-γGlu-Decanoyl(10-(4-HOOC-PhO))])FIAWLVRGRK([AEEA-AEEA-γGlu-Decanoyl(10-(4-HOOC-PhO))]),217,0.033 µM,0.00015 µM,143 pM
HAEGTFTSDVSSYLEK([γGlu-AEEA-AEEA-C14 diacid])QAVRK([γGlu-AEEA-AEEA-C14 diacid])FIEWLVQGRG (also called 20),1750,0.333 µM,0.00019 µM,67 pM
HAEGTFTSDVSSYLEK([AEEA-AEEA-γGlu-C14 diacid])QAVRK([AEEA-AEEA-γGlu-C14 diacid])FIEWLVQGRG (also called 11),926,0.213 µM,0.00023 µM,81 pM
HAEGTFTSDVSSYLEEEAVRK([AEEA-AEEA-γGlu-C14 diacid])FIAHLVQGRK([AEEA-AEEA-γGlu-C14 diacid]) (also called 17),387,0.174 µM,0.00045 µM,17 pM
HAEGTFTSDVSSYLEEQAARK([AEEA-AEEA-γGlu-Decanoyl(10-(4-HOOC-PhO))])FIAWLVRGRK([AEEA-AEEA-γGlu-Decanoyl(10-(4-HOOC-PhO))]),219,0.042 µM,0.00019 µM,26 pM
HAEGTFTSDVSSYLEEQK([AEEA-AEEA-γGlu-Decanoyl(10-(4-HOOC-PhO))])VRK([AEEA-AEEA-γGlu-Decanoyl(10-(4-HOOC-PhO))])FIAWLVRGRG (also called 28),144,0.029 µM,0.0002 µM,68 pM
HAEGTFTSDVSSYLEGQAVRK([γGlu-AEEA-AEEA-d(γGlu)-Decanoyl(10-(4-HOOC-PhO))])FIAWLVQGK([γGlu-AEEA-AEEA-d(γGlu)-Decanoyl(10-(4-HOOC-PhO))])G (also called 26),143,0.054 µM,0.00038 µM,200 pM
HAEGTFTSDVSSYLEEQK([AEEA-AEEA-γGlu-C14 diacid])VRK([AEEA-AEEA-γGlu-C14 diacid])FIAHLVRGRG (also called 24),18,0.05 µM,0.00274 µM,70 pM
HAEGTFTSDVSSYLEGQAVRK([AEEA-AEEA-γGlu-γGlu-Decanoyl(10-(4-HOOC-PhO))])FIAWLVQGK([AEEA-AEEA-γGlu-γGlu-Decanoyl(10-(4-HOOC-PhO))])G (also called 23),47,0.04 µM,0.00085 µM,140 pM
HAEGTFTSDVSSYLEGQAVRK([AEEA-AEEA-γGlu-C14 diacid])FIAHLVQGRK([AEEA-AEEA-γGlu-C14 diacid]) (also called 16),127,0.025 µM,0.0002 µM,21 pM
HAEGTFTSDVSSYLEGQAARK([AEEA-AEEA-γGlu-Decanoyl(10-(4-HOOC-PhO))])FIEWLVRGK([AEEA-AEEA-γGlu-Decanoyl(10-(4-HOOC-PhO))])GE,246,0.123 µM,0.0005 µM,96 pM
HAEGTFTSDVSSYLEEQAAHK([AEEA-AEEA-γGlu-Decanoyl(10-(4-HOOC-PhO))])FIEWLVRGK([AEEA-AEEA-γGlu-Decanoyl(10-(4-HOOC-PhO))])GE (also called 21),163,0.256 µM,0.00157 µM,52 pM
HAEGTFTSDVSSYLEGQAAHK([AEEA-AEEA-γGlu-Decanoyl(10-(4-HOOC-PhO))])FIEWLVRGK([AEEA-AEEA-γGlu-Decanoyl(10-(4-HOOC-PhO))])GE (also called 10),70,0.452 µM,0.00649 µM,214 pM
HAEGTFTSDVSSYLEGQAVRK([AEEA-AEEA-γGlu-Decanoyl(10-(4-HOOC-PhO))])FIEWLVQGK([AEEA-AEEA-γGlu-Decanoyl(10-(4-HOOC-PhO))])GE (also called 13),804,0.201 µM,0.00025 µM,79 pM
HAEGTFTSDVSSYLEGQAVRK([AEEA-AEEA-γGlu-Decanoyl(10-(4-HOOC-PhO))])FIEWLVRGK([AEEA-AEEA-γGlu-Decanoyl(10-(4-HOOC-PhO))])GQ (also called 12),453,0.072 µM,0.00016 µM,41 pM
HAEGTFTSDVSSYLEEQK([γGlu-AEEA-AEEA-C14 diacid])ARK([γGlu-AEEA-AEEA-C14 diacid])FIAHLVG (also called 22),87,0.812 µM,0.00931 µM,1180 pM
HAEGTFTSDVSSYLEEQK([γGlu-AEEA-AEEA-C14 diacid])VRK([γGlu-AEEA-AEEA-C14 diacid])FIAWLVG (also called 30),134,> 1 µM,0.00744 µM,3000 pM
HAEGTFTSDVSSYLEEQK([AEEA-AEEA-γGlu-C14 diacid])VRK([AEEA-AEEA-γGlu-C14 diacid])FIAWLVG (also called 27),97,> 1 µM,0.0103 µM,835 pM
HAEGTFTSDVSSYLEK([γGlu-AEEA-AEEA-C14 diacid])QAARK([γGlu-AEEA-AEEA-C14 diacid])FIAHLVG (also called 14),306,0.443 µM,0.00145 µM,42 pM
